Reference: patent US11998613B2, “Antibody-drug conjugates containing an anti-mesothelin antibody and uses thereof” (DEVELOPMENT CENTER FOR BIOTECHNOLOGY, priority 2020, dated 2024)

What was measured:
[1] = In vivo PK in mice, MSD ECL total and conjugated antibody assays; set-up: species or system BALB/c mice; conditions: 3 mg/kg via the tail vein
Procedure: The mice were administered at a dose level of 3 mg/kg via the tail vein. Blood samples were then obtained at different time points for determining the concentrations of DCBPR2002-4(DBCO-vc-MMAE) in mice by MESO QuickPlex SQ 120 method.

[2] = In vivo PK in rats, MSD ECL total and conjugated antibody assays; conditions: for AUC(0−last) / AUC(0−∞) / C0 / CL / MRT / Vss / t1/2: 5 mg/kg via the tail vein, serum
Source text: This study used Meso Scale Discovery (MSD) Electrochemiluminescent (ECL) method to conduct the pharmacokinetic analysis of DCBPR2002-4(DBCO-vc-MMAE) in BALB/c mice and rat samples. The MSD assay can measure both conjugated and unconjugated antibodies. As illustrated in this example, or total antibody assay the plate is coated with goat anti-human IgG, which can capture all humanized antibodies (conjugated and unconjugated). For the conjugated antibody assay, the plate is coated with an antibody against the payload (drug), such as anti-MMAE antibody.
The in vivo pharmacokinetic study was designed for the comparison the linker-payload stability of trimannosyl-conjugated and cysteine-conjugated synthesis ADC (Adcetris). The rats were administered DCBPR2002-4(DBCO-vc-MMAE) and Adcetris at a dose level of 5 mg/kg via the tail vein. Serum samples were then obtained at different time points for determination of the concentrations of DCBPR2002-4(DBCO-vc-MMAE) and Adcetris in rats by MESO QuickPlex SQ 120 method. The pharmacokinetic parameters of DCBPR2002-4(DBCO-vc-MMAE) and Adcetris were analyzed by noncompartmental analysis using Phoenix™ for WinNonlin Program, version 6.3.

[3] = system: KLM-1 human pancreatic cancer xenograft; assay: KLM-1 xenograft model (Example 43); assay type: in vivo, male NOD SCID mice; conditions: 15 mg/kg IV once weekly for 3 weeks
Procedure: (§1) Each of the formulations was administered intravenously (IV) to the mice once weekly for three weeks.
(§2) Five mice were housed in each cage.
When the average tumor volume had reached about 200 mm^3, the mice were randomly divided into 3 groups (N=6 per group). Each of the vehicle, DCBPR2002-lysine-DBCO-vc-MMAE (15 mg/kg), and DCBPR2002-4(DBCO-vc-MMAE) (15 mg/kg) was intravenously administered once weekly for 3 weeks.
(§3) Differences are considered significant at *P<0.05.

[4] = system: KLM-1 human pancreatic cancer xenograft; assay: KLM-1 xenograft model (Example 44); assay type: in vivo; conditions: for tumor growth / anti-tumor activity: TGI≥58% considered significant
Procedure: as §1, §2
When the average tumor volume had reached 200 mm^3, the mice were randomLy divided into 4 groups (N=6 per group). Each of the vehicle, DCBPR2002-4(DBCO-vc-MMAE) (15 and 30 mg/kg), and naked antibody (DCBPR2002, 30 mg/kg) was intravenously administered once weekly for 3 weeks.
as §3

[5] = system: KLM-1 human pancreatic cancer xenograft; assay: KLM-1 xenograft model (Example 45); conditions: 15 mg/kg IV once weekly for 3 weeks
Procedure: Formulations respectively comprising test article DCBPR2002-4(DBCO-vc-MMAE)(15 mg/kg), test article DCBPR2002-4(DBCO-vc-seco-DUBA)(15 mg/kg), test article DCBPR2002-4(DBCO-s-DM1) (15 mg/kg), test article DCBPR2002-2(DBCO-vc-MMAE)-2(DBCO-vc-seco-DUBA) (15 mg/kg), test article DCBPR2002-2(DBCO-vc-MMAE)-2(DBCO-s-DM1) (15 mg/kg), test article DCBPR2002-2(DBCO-vc-seco-DUBA)-2(DBCO-s-DM1) (15 mg/kg), and a corresponding vehicle were formulated by diluting the stock with a 25 mM sodium citrate buffer (pH6.5). Each of the formulations was administered intravenously (IV) once weekly for three weeks.
The KLM-1 cells were maintained in vitro as a monolayer culture in RPMI-1640 medium supplemented with 10% fetal bovine serum at 37° C. in an atmosphere of 5% CO2 in air. The tumor cells were routinely sub-cultured twice weekly by trypsin-EDTA treatment. The cells growing in an exponential growth phase were harvested and counted for tumor inoculation.
Male NOD SCID mice at age of 6-7 weeks were purchased from BioLasco Taiwan Co., LTD. and quarantined for one week. Five mice were housed in each cage. All animals were hosted in the animal facility with a 12-h light/12-h dark cycle at 19-25° C. Animals had free access to rodent pellet foods and water ad libitum.
KLM-1 cells were subcutaneously (SC) implanted (4×10^6 cells in 1:1 PBS/matrigel mixture at 0.1 mL per mouse) into the right flank of male NOD SCID mice. When the average tumor volume had reached 300 mm^3, the mice were randomly divided into 7 groups (N=6 per group). Each of the vehicle, DCBPR2002-4(DBCO-vc-MMAE), DCBPR2002-4(DBCO-vc-seco-DUBA), DCBPR2002-4(DBCO-s-DM1), DCBPR2002-2(DBCO-vc-MMAE)-2(DBCO-vc-seco-DUBA), DCBPR2002-2(DBCO-vc-MMAE)-2(DBCO-s-DM1), DCBPR2002-2(DBCO-vc-seco-DUBA)-2(DBCO-s-DM1) was intravenously administered as 15 mg/kg once weekly for 3 weeks.
The tumor volumes, body weights, mortality, and signs of overt toxicity were monitored and recorded three times weekly for 28 days. Tumor volumes were measured three times per week using calipers and calculated according to the formula: Tumor Volume=(w2×l)/2, where w=width and l=length in diameter (mm) of the tumor. […] One-way ANOVA followed by Dunnett's test was applied for comparison between the vehicle and test article-treated groups. Differences are considered significant at *P<0.05. Animals were weighed three times weekly until the completion of the study.

[6] = 15 mg/kg IV once weekly for 3 weeks
[7] = 30 mg/kg IV once weekly for 3 weeks

B1: DCBPR2002-4(DBCO-vc-MMAE): DCBPR2002-4Az reacted with DBCO-vc-MMAE; trimannosyl-conjugated ADC, DAR 3.89 (conjugate)
VH: QVQLVQSGAEVKKPGASVKVSCKASGYSFTGYTMNWVRQAPGQGLEWMGLITPYNGASSYNQKFRGRVTMTRDTSISTAYMELSRLRSDDTAVYYCARGGYDGRGFDYWGQGTLVTVSS
VL: EIVLTQSPATLSLSPGERATLSCSASSSVSYMHWYQQKPGQAPRLLIYDTSKLASGIPARFSGSGSGTDFTLTISSLEPEDFAVYYCQQWSKHPLTFGQGTKVEIKR
- AUC(0−last) ([1]; Conjugated antibody): 2.264 µg·h/mL
- C0 ([1]; Conjugated antibody): 275 ng/mL
- MRT ([1]; Conjugated antibody): 23.4 h
- Vss ([1]; Conjugated antibody): 0.155 L/kg
- AUC(0−last) ([1]; Total antibody): 25.963 µg·h/mL
- C0 ([1]; Total antibody): 346 ng/mL
- MRT ([1]; Total antibody): 299 h
- Vss ([1]; Total antibody): 0.129 L/kg
- t1/2 ([1]; Total antibody): 220 h
- AUC(0−last) ([2]; Conjugated antibody): 2334.505 µg·h/mL
- AUC(0−∞) ([2]; Conjugated antibody): 2400.45 µg·h/mL
- C0 ([2]; Conjugated antibody): 80955 ng/mL
- CL ([2]; Conjugated antibody): 2.1 mL/h/kg
- MRT ([2]; Conjugated antibody): 85.6 h
- Vss ([2]; Conjugated antibody): 0.179 L/kg
- t1/2 ([2]; Conjugated antibody): 148 ± 8.14 h
- AUC(0−last) ([2]; Total antibody): 4013.185 µg·h/mL
- AUC(0−∞) ([2]; Total antibody): 4363.325 µg·h/mL
- C0 ([2]; Total antibody): 94121 ng/mL
- CL ([2]; Total antibody): 1.14 mL/h/kg
- MRT ([2]; Total antibody): 160 h
- Vss ([2]; Total antibody): 0.183 L/kg
- t1/2 ([2]; Total antibody): 194 ± 35.0 h
- difference between the curve of total antibody and conjugated antibody (stability of the conjugated linker-payload) ([2]; 5 mg/kg, compared with Adcetris): closed on DCBPR2002-4(DBCO-vc-MMAE) than that of Adcetris
- body weight changes [3]: No body weight loss was observed
- tumor growth / anti-tumor activity ([3]; TGI≥58% considered significant): significantly reduced KLM-1 tumor growth from Day 7 to Day 28
- body weight changes [4, 6]: No body weight loss was observed
- tumor growth / anti-tumor activity [4, 6]: significantly reduced KLM-1 tumor growth from Day 7 to Day 28
- body weight changes [4, 7]: No body weight loss was observed
- tumor growth / anti-tumor activity [4, 7]: significantly reduced KLM-1 tumor growth from Day 7 to Day 28
- body weight changes [5]: No body weight loss was observed
- ranking of efficacy potency [5]: DCBPR2002-4(DBCO-vc-seco-DUBA)=DCBPR2002-2(DBCO-vc-MMAE)-2(DBCO-vc-seco-DUBA)=DCBPR2002-2(DBCO-vc-seco-DUBA)-2(DBCO-s-DM1)>DCBPR2002-4(DBCO-vc-MMAE)>DCBPR2002-2(DBCO-vc-MMAE)-2(DBCO-s-DM1)>DCBPR2002-4(DBCO-s-DM1)
